System: hepatic stellate cells
Assay: Apoptosis of activated stellate cells transfected with C/EBPβ constructs, annexin-V-PE binding
Type: cell-based, mouse
Settings: apoptosis induced by dominant negative MEKK1, IκBα or RSK mutants or by lactacystin
Outline: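 Primary mouse hepatic stellate cells activated on collagen type I, co-transfected with MSV-C/EBPβ constructs (antisense, sense or Ala^217), CMV-GFP and p90RSK (1 μg each). Annexin-V-PE plasma-membrane binding read 4 h post-transfection, expressed as percentage of GFP-positive transfected cells that were annexin-V-PE positive.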

B1: C/EBPβ-Glu^217: modified murine C/EBPβ with mutation of Thr^217 to glutamic acid (SEQ ID NO:4), phosphorylation mimic (protein, listed as Mus musculus)
chain: MHRLLAWDAACLPPPPAAFRPMEVANFYYEPDCLAYGAKAARAAPRAPAAEPAIGEHERAIDFSPYLEPLAPAADFAAPAPAHHDFLSDLFADDYGAKPSKKPADYGYVSLGRAGAKAAPPACFPPPPPAALKAEPGFEPADCKRADDAPAMAAGFPFALRAYLGYQATPSGSSGSLSTSSSSSPPGTPSPADAKAAPAACFAGPPAAPAKAKAKKZVDKLSDEYKMRRERNNIAVRKSRDKAKMRNLETQHKVLELTAENERLQKKVEQLSRELSTLRNLFKQLPEPLLASAGHC
  Rescue from induced apoptosis by expressed construct: partially inhibited

From patent publication US8129349B2, “Treatment of disease by inducing cell apoptosis” (The Regents of the University of California, priority 2000, dated 2012)
